Measured values from patent US20040071656A1, “Modulation of heat-shock-protein-based immunotherapies” (priority 2001, published 2004).

Target: T1, human CD40 (Homo sapiens, UniProt P25942)
T1 construct: CD40 full-length cDNA was cloned by PCR; expressed in transfected cells
Test: P38 kinase assay in HEK293T-CD40 cells
Format: cell-based
Conditions: for phosphorylated p38 in HEK293T-CD40 cells: 100 nM, 20 min at 37° C., ADP and peptide C
Description: P38 Kinase Assay. Twenty-four h prior to P38 kinase assays HEK293T-CD40 and HEK293T-MCAT cells were seeded into a 24-well plate coated with collagen and incubated with 100 nM CD40L (Alexis), HSP70, N70-domain, C70-domain, or DnaK for 20 min at 37° C. DnaK, Hsp70, N70 and C70 were preincubated with either 2 mM ADP and 30 μM peptide C or 40 μM AMPPNP (Sigma). Upon stimulation cells were washed twice with ice-cold PBS, and lysed in SDS-sample buffer. Equal amounts of protein were analyzed by immunoblotting with antibodies directed against phosphorylated P38 (Promega), and with a monoclonal anti-tubulin antibody (J. Wehland, Braunschweig, Germany).
Binding of Hsp70-peptide complex to CD40 results in intracellular signaling and peptide uptake. Binding of CD40 ligand to CD40 induces signal transduction via phosphorylation of p38, a component of the signal cascade between activated CD40 and NF-kappaB, which eventually results in the release of TNF-alpha and subsequent secretion of interferon-gamma (Pullen et al., 1999). Binding of the C-terminal domain of DnaK to CD40 was reported to have a similar effect (Wang et al., 2001, idem). We therefore investigated whether binding of human Hsp70-peptide complex to CD40 also stimulates this signaling pathway. These experiments were carried out in HEK293T cells stably transfected with human CD40 cDNA. After incubation with either Hsp70-peptide complex, recombinant Hsp70 domains, or DnaK, in the presence of ADP or the non-hydrolysable ATP analogue AMPPNP, cells were lysed, and lysates analyzed by immunoblotting with an antibody directed against active (i.e., phosphorylated) p38.
Details for FIG. 6. Binding of Hsp70 complex to CD40-expressing HEK293T cells induces signaling via p38 and causes peptide uptake. […] Thereafter cells were washed, solubilized in SDS-sample buffer, and analyzed by immunoblotting with antibodies directed against phosphorylated (active) p38. […] Thereafter cells were washed, incubated for 15 min at 37° C., and processed for fluorescence microscopy. […]

T1 sequence (P25942 21-277): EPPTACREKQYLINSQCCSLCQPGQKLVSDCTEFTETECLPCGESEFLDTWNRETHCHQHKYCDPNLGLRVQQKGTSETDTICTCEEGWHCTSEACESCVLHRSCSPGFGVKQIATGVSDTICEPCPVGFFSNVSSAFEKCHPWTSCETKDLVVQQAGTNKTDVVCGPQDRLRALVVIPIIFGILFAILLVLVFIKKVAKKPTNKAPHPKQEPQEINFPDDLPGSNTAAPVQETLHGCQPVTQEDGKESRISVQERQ

For “Hsp70: Recombinant human heat shock protein 70, expressed and purified as His-tagged protein”, the “phosphorylated p38 in HEK293T-CD40 cells” value was “caused an increase in phosphorylated p38 to an extent comparable to that observed with DnaK” and the “activation of p38 by Hsp70, nucleotide dependence” value (ADP versus AMPPNP, compared with same molar concentration of CD40 ligand) was “significant, and depended on the presence of ADP”.
In the case of “N70: Recombinant N-terminal ATPase domain of human Hsp70, residues 5-381 (SEQ ID NO: 1)”, the “phosphorylated p38 in HEK293T-CD40 cells” value is reported as “caused an increase in phosphorylated p38 to an extent comparable to that observed with DnaK”.
